Results as given in patent US20160271157A1, “BETA-CATENIN” (UCL BUSINESS PLC, priority 2013, published 2016).

B1: Wnt4: Recombinant Wnt peptide purchased from R&D systems (protein, UniProt P56705 23-351, looked up)
Protein Wnt-4: SNWLYLAKLSSVGSISEEETCEKLKGLIQRQVQMCKRNLEVMDSVRRGAQLAIEECQYQFRNRRWNCSTLDSLPVFGKVVTQGTREAAFVYAISSAGVAFAVTRACSSGELEKCGCDRTVHGVSPQGFQWSGCSDNIAYGVAFSQSFVDVRERSKGASSSRALMNLHNNEAGRKAILTHMRVECKCHGVSGSCEVKTCWRAVPPFRQVGHALKEKFDGATEVEPRRVGSSRALVPRNAQFKPHTDEDLVYLEPSPDFCEQDMRSGVLGTRGRTCNKTSKAIDGCELLCCGRGFHTAQVELAERCSCKFHWCCFVKCRQCQRLVELHTCR
B2: Wnt3A: Recombinant Wnt peptide purchased from R&D systems (protein, UniProt P56704 19-352, looked up)
Protein Wnt-3a: SYPIWWSLAVGPQYSSLGSQPILCASIPGLVPKQLRFCRNYVEIMPSVAEGIKIGIQECQHQFRGRRWNCTTVHDSLAIFGPVLDKATRESAFVHAIASAGVAFAVTRSCAEGTAAICGCSSRHQGSPGKGWKWGGCSEDIEFGGMVSREFADARENRPDARSAMNRHNNEAGRQAIASHMHLKCKCHGLSGSCEVKTCWWSQPDFRAIGDFLKDKYDSASEMVVEKHRESRGWVETLRPRYTYFKVPTERDLVYYEASPNFCEPNPETGSFGTRDRTCNVSSHGIDGCDLLCCGRGHNARAERRREKCRCVFHWCCYVSCQECTRVYDVHTCK
B3: Wnt7A: Recombinant Wnt peptide purchased from R&D systems (protein, UniProt O00755 32-349, looked up)
Protein Wnt-7a: LGASIICNKIPGLAPRQRAICQSRPDAIIVIGEGSQMGLDECQFQFRNGRWNCSALGERTVFGKELKVGSREAAFTYAIIAAGVAHAITAACTQGNLSDCGCDKEKQGQYHRDEGWKWGGCSADIRYGIGFAKVFVDAREIKQNARTLMNLHNNEAGRKILEENMKLECKCHGVSGSCTTKTCWTTLPQFRELGYVLKDKYNEAVHVEPVRASRNKRPTFLKIKKPLSYRKPMDTDLVYIEKSPNYCEEDPVTGSVGTQGRACNKTAPQASGCDLMCCGRGYNTHQYARVWQCNCKFHWCCYVKCNTCSERTEMYTCK
B4: Wnt11: Recombinant Wnt peptide purchased from R&D systems (protein, UniProt O96014 25-354, looked up)
Protein Wnt-11: IKWLALSKTPSALALNQTQHCKQLEGLVSAQVQLCRSNLELMHTVVHAAREVMKACRRAFADMRWNCSSIELAPNYLLDLERGTRESAFVYALSAAAISHAIARACTSGDLPGCSCGPVPGEPPGPGNRWGGCADNLSYGLLMGAKFSDAPMKVKKTGSQANKLMRLHNSEVGRQALRASLEMKCKCHGVSGSCSIRTCWKGLQELQDVAADLKTRYLSATKVVHRPMGTRKHLVPKDLDIRPVKDSELVYLQSSPDFCMKNEKVGSHGTQDRQCNKTSNGSDSCDLMCCGRGYNPYTDRVVERCHCKYHWCCYVTCRRCERTVERYVCK

What was measured:
Assay type in all cases: cell-based
[1] = system: Wnt induced calcium release; assay: Wnt induced [Ca2+]i release after preincubation with thapsigargin or membrane potential regulating compounds; conditions: preincubation 5 min; Wnt 9B 0.1 μg/ml as example; CsCl 5 mM; CdCl2 1 mM; TEA 10 mM; Amiodarone 75 μM; Tolbutamide 1 mM; Isradipine 100 μM; Nifedipine 1 mM; Minoxidil 25 μM; Atenolol 37.5 μM; Propanolol 50 μM; Furosemide 150 μM
Experimental: The imaging protocol was developed in the inventor's laboratory and has been described in detail, elsewhere (Wang at al., (2010) PLoS ONE 5, e10456). Briefly, 100000-200000 PC3, MCF7, 253J or Cos 7 cells were plated on 35 mm FluoroDish (WPI) and grown for 48 h; calcium indicators Fluo-4 (Invitrogen) and FuraRed (Invitrogen) at 1 ng/ml were added to FluoroDish containing only 1 ml of culture medium and incubated for 15-20 min at 37° C. The culture medium was removed and washed (×2) and replaced with 1 ml PBS. Live cell calcium Imaging was performed on an Olympus FluoView FV 1000 confocal microscope (Olympus KeyMed) equipped with a 20× dry objective (numerical aperture=0.75). Calcium indicators were excited with an argon laser line (488 nm) and emissions recorded in the green channel (500-560 nm) for Fluo-4 and red channel (600-700 nm) for FuraRed after addition of vehicle control (PBS) or Wnt X (30-600 ng/ml). Images were acquired every 1.1 or 2.2 seconds for up to 600-800s; image and data acquisition was performed using FluoView 1000 software (Olympus, UK). Fluorescent intensity was measured and data exported as a tab delimited file for further analysis using a spreadsheet. All imaging experiments were performed in duplicate; intracellular calcium at 100 ng/ml was measured in at least 3-12 different passages (passage numbers 25 to 37) of cell line for each Wnt ligand. Wnt 11 was tested in at least 5 different passages at 3 different concentrations. […]
To measure the effect of changes in membrane potential on [Ca^2+]i release using the protocol described above, in some experiments, external solution (PBS) was substituted with varying concentrations of KCl. In other experiments chemical inhibitors of K^+ channels such as TEA, CsCl or tolbutamide (Sigma-Aldrich) were added to the cells grown on FluoroDish, at 37° C., at least 5 min prior to addition of Wnt ligands.
(§1) After image acquisition, regions of interest (ROI) were drawn over individual PC3 cells (up to 25) in a single frame and calcium intensity measurements were made using FluoView 1000 software (Olympus, UK). The measurements were exported as a tab delimited file into a spreadsheet for further analysis and Fluo4/Fura Red ratios were calculated. The waveform, a product of the ratio of Fluo4 and FuraRed over the period of measurement was used to measure the kinetics of the activation of [Ca^2+]i release in PC3 cells, in response to different Wnt ligands. The time constants (rise, dwell and fall times) were calculated by first fitting the Fluo4/FuraRed ratio to a single Gaussian function (Origin Lab Corp., MA); a lower (10%) and upper (90%) amplitude thresholding method was then used to calculate the time constants (s). Statistical significance was calculated using Mann Whitney U test.

[2] = system: β-catenin translocation to the nucleus; assay: β-catenin immunocytochemistry and nuclear co-localization analysis, PC3; conditions: PC3 cells; for Pearson coefficient of nuclear co-localization of β-catenin: Wnt 100 ng/ml vs control, p<0.001 Mann Whitney test
Experimental: Immunostaining was performed in two different laboratories, independently with the experimenter blind to the identity of the treatment. Either cells used in FluoroDish, post [Ca^2+]i experiments using dyes (see above) or grown in 8 well chamber glass slides (Lab Tek II, Nunc) were used. For Wnt ligand treatment, the culture medium replaced with PBS (without calcium) at 37° C. The experiments were replicated for Wnt ligand or vehicle control as described for [Ca^2+]i measurements. Briefly, Wnt ligands were added and chamber slides incubated at 37° C. for up to 20 min. Chamber wells were washed 3× with 0.5 ml PBS and cells were fixed with 0.5 ml 4% formalin for 30 min at 4° C. Cells were washed 3× with ice cold PBS and stored in 0.5 ml PBS at 4° C. for immunostaining. In some experiments PC3 cells were treated with thaspsigargin as described above.
For immunostaining cells were washed twice for 5 minutes in TBST (20 mM Tris pH 7.4, 0.9% NaCl, 0.1% Tween 20, Sigma). Cells were then incubated in 20% normal goat serum (NGS)/TBST for 30 min at room temperature, the chambers were drained and cells were incubated with mouse anti-β-catenin (ab22656, Abcam, UK) at 1:500 dilution in NGS/TBST overnight at 4° C. Following two further 5 min washes in TBST sections were incubated in goat anti-mouse peroxidase fab (Abcam, UK) at 1:500 dilution for 30 min at room temperature. Following a further two 5 min washes in TBST cells were incubated with tyramide Cy3 (Perkin Elmer) for 10 min at room temperature. Sections were washed twice for 5 min in TBST before nuclear counterstaining with DAPI. After a final two 5 min washes, the chambers were removed and cover slip placed on slides using Permafluor (Thermo Shandon).
Fluorescence immunocytochemical staining for β-catenin expression in cell lines was imaged using Olympus Fluoview 1000 Confocal Microscope (Olympus KeyMed) mounted on an Olympus IX81 inverted microscope using a 20×0.7 NA or 40×1.0 NA dry objective with a zoom of ×3.4′,6-diamidino-2-phenylindole (DAPI, nuclear counterstain) was excited at 405 nm with an emission of 415-500 nm; Cy3 (β-catenin label) signal was excited at 561 nm with an emission spectrum between 570-670 nm. […] Z-stacks of at least 3 fields per sample were imaged and saved in Olympus FV (OIF or OIB) file format.
Nuclear co-localization of β-catenin was calculated by importing FV files for untreated, control or treated cells, into colocalization plugin of Fiji software (http://fiji.sc/Fiji) for Cy3 (β-catenin) and DAPI (nuclear) signals. Pearson co-relation of colocalization were tabulated for 25-90 cells (from 2-5 different passages of cells) using ROI analysis. Statistical significance between untreated and treated cells was calculated using Mann Whitney U test.

[3] = system: PC3 prostate cancer cell line; assay: Live [Ca2+]i imaging (Fluo4/FuraRed ratio) after addition of Wnt ligand; conditions: PC3 cells; for intracellular calcium mobilization ([Ca2+]i release) in response to Wnt ligand: 100 ng/ml Wnt ligand peptide, ratio of Fluo4/Fura Red; for rise and fall time of [Ca2+]i release: Wnt peptide 100 ng/ml; for dependence of time constants (dwell time) on Wnt ligand concentration / co-operativity: three concentrations of each Wnt ligand, first-order fit
Experimental: The imaging protocol was developed in the inventor's laboratory and has been described in detail, elsewhere (Wang at al., (2010) PLoS ONE 5, e10456). Briefly, 100000-200000 PC3, MCF7, 253J or Cos 7 cells were plated on 35 mm FluoroDish (WPI) and grown for 48 h; calcium indicators Fluo-4 (Invitrogen) and FuraRed (Invitrogen) at 1 ng/ml were added to FluoroDish containing only 1 ml of culture medium and incubated for 15-20 min at 37° C. The culture medium was removed and washed (×2) and replaced with 1 ml PBS. Live cell calcium Imaging was performed on an Olympus FluoView FV 1000 confocal microscope (Olympus KeyMed) equipped with a 20× dry objective (numerical aperture=0.75). Calcium indicators were excited with an argon laser line (488 nm) and emissions recorded in the green channel (500-560 nm) for Fluo-4 and red channel (600-700 nm) for FuraRed after addition of vehicle control (PBS) or Wnt X (30-600 ng/ml). Images were acquired every 1.1 or 2.2 seconds for up to 600-800s; image and data acquisition was performed using FluoView 1000 software (Olympus, UK). Fluorescent intensity was measured and data exported as a tab delimited file for further analysis using a spreadsheet. All imaging experiments were performed in duplicate; intracellular calcium at 100 ng/ml was measured in at least 3-12 different passages (passage numbers 25 to 37) of cell line for each Wnt ligand. Wnt 11 was tested in at least 5 different passages at 3 different concentrations. To test if the Wnt activated calcium release was from [Ca^2+]i stores, in some cases PC3 cells, loaded with calcium dyes, were incubated with 1-5 μM of thapsigargin (Sigma, UK), resuspended in dimethyl sulfoxide (DMSO), for 20 min at 37° C., prior to addition of Wnt ligand and live calcium imaging (as described above).
The experiments were performed using 35 mm, glass bottom, FluoroDish containing 1 ml PBS, at 37° C., to which ligands were added at desired concentration. In a static, non-superfusing assay system there is a lag time before the start of a response, in this case an increase in the intensity of the Fluo4 signal due to the release of free calcium. To measure the diffusion constant under these conditions we used Pontamine Sky Blue (Sigma Aldridge), which fluoresces in the red spectrum with 488 nm excitation, using standard practice for adding ligands; the diffusion constant was measured to be 23.3±2.1 μm·s^−1 (means±S.E.M, n=8). The calcium wave, in response to Wnt ligands, travelled across the FluoroDish.
as §1

Molecule | Wnt ligand induced calcium release after preincubation with MPRC (FIG. 16) [1] | intracellular calcium mobilization ([Ca2+]i release) in response to Wnt ligand [3] | dependence of time constants (dwell time) on Wnt ligand concentration / co-operativity [3] | further results
CCCCc1oc2ccccc2c1C(=O)c1cc(I)c(OCCN(CC)CC)c(I)c1 [Amiodarone] | inhibited |  |  | 
CC(C)NCC(O)COc1ccc(CC(N)=O)cc1 (stereo not shown) [Atenolol] | inhibited |  |  | 
[Cl][Cd][Cl] [CdCl2] | inhibited |  |  | 
COC(=O)C1=C(C)NC(C)=C(C(=O)OC(C)C)C1c1cccc2nonc12 (stereo not shown) [Isradipine] | inhibited |  |  | 
C[C@@H]1O[C@@H](O[C@H]2C[C@@H](O)[C@]3(CO)[C@H]4[C@H](O)C[C@]5(C)[C@@H](C6=CC(=O)OC6)CC[C@]5(O)[C@@H]4CC[C@]3(O)C2)[C@H](O)[C@H](O)[C@H]1O [Ouabain, reference compound] |  |  |  | β-catenin translocation to the nucleus after pretreatment with Ouabain (FIG. 21) ([2]; Wnt5A treated): increases
B1 |  | induce intracellular calcium mobilization | negative co-operativity | Pearson coefficient of nuclear co-localization of β-catenin [2]: significant increase; rise and fall time of [Ca2+]i release [3]: slowest
B2 |  | induce intracellular calcium mobilization | negative co-operativity | Pearson coefficient of nuclear co-localization of β-catenin [2]: significant increase; rise and fall time of [Ca2+]i release [3]: shortest
B3 |  | induce intracellular calcium mobilization | no difference | 
B4 |  | did not mobilize [Ca^2+]i |  | 
